Results taken from patent US20180155451A1 (published 2018).

target: T1, FcγRIa extracellular domain with C-terminal His tag (human, UniProt P12314 16-292); test: SPR (Biacore), captured antibody, FcγRIa analyte; relative to GpH7-A5/GpH7-B3/GpL16-k0 = 100
T1 construct: extracellular domain; Expressed in FreeStyle293 cells; used as analyte in Biacore; also called FcgRI; 1a; not shown: His tag at the C terminus
T1 sequence (P12314 16-292): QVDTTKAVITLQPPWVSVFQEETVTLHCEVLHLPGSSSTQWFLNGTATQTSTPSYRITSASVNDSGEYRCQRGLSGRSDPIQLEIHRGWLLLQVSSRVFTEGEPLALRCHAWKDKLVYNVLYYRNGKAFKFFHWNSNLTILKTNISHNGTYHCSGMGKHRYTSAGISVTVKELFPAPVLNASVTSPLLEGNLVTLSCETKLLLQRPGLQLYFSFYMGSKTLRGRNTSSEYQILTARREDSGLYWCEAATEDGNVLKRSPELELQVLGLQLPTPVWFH

Row | He/Con_1a | Binder
1 | 105 % of control | GpH7-A5/GpH7-B3 variant (T335_04F)/GpL16-k0 (antibody, human IgG1, kappa, Heterodimerized; only the B3 chain altered; also called He Ab T335_04F) heavy 1: not shown heavy 2: not shown light: DIVMTQSPLSLPVTPGEPASISCQASESLVHSNRNTYLHWYLQKPGQSPQLLIYKVSNRFSGVPDRFSGSGSGTDFTLKISRVEAEDVGVYYCSQNTHVPPTFGQGTKVEIERTVAAPSVFIFPPSDEQLKSGTASVVCLLNNFYPREAKVQWKVDNALQSGNSQESVTEQDSKDSTYSLSSTLTLSKADYEKHKVYACEVTHQGLSSPVTKSFNRGEC
2 | 107 % of control | GpH7-A5/GpH7-B3 variant (I336_08L)/GpL16-k0 (antibody, human IgG1, kappa, Heterodimerized; only the B3 chain altered; also called He Ab I336_08L) heavy 1: not shown heavy 2: not shown light: DIVMTQSPLSLPVTPGEPASISCQASESLVHSNRNTYLHWYLQKPGQSPQLLIYKVSNRFSGVPDRFSGSGSGTDFTLKISRVEAEDVGVYYCSQNTHVPPTFGQGTKVEIERTVAAPSVFIFPPSDEQLKSGTASVVCLLNNFYPREAKVQWKVDNALQSGNSQESVTEQDSKDSTYSLSSTLTLSKADYEKHKVYACEVTHQGLSSPVTKSFNRGEC
3 | 102 % of control | GpH7-A5/GpH7-B3 variant (I336_12R)/GpL16-k0 (antibody, human IgG1, kappa, Heterodimerized; only the B3 chain altered; also called He Ab I336_12R) heavy 1: not shown heavy 2: not shown light: DIVMTQSPLSLPVTPGEPASISCQASESLVHSNRNTYLHWYLQKPGQSPQLLIYKVSNRFSGVPDRFSGSGSGTDFTLKISRVEAEDVGVYYCSQNTHVPPTFGQGTKVEIERTVAAPSVFIFPPSDEQLKSGTASVVCLLNNFYPREAKVQWKVDNALQSGNSQESVTEQDSKDSTYSLSSTLTLSKADYEKHKVYACEVTHQGLSSPVTKSFNRGEC
4 | 104 % of control | GpH7-A5/GpH7-B3 variant (I336_09D)/GpL16-k0 (antibody, human IgG1, kappa, Heterodimerized; only the B3 chain altered; also called He Ab I336_09D) heavy 1: not shown heavy 2: not shown light: DIVMTQSPLSLPVTPGEPASISCQASESLVHSNRNTYLHWYLQKPGQSPQLLIYKVSNRFSGVPDRFSGSGSGTDFTLKISRVEAEDVGVYYCSQNTHVPPTFGQGTKVEIERTVAAPSVFIFPPSDEQLKSGTASVVCLLNNFYPREAKVQWKVDNALQSGNSQESVTEQDSKDSTYSLSSTLTLSKADYEKHKVYACEVTHQGLSSPVTKSFNRGEC
5 | 108 % of control | GpH7-A5/GpH7-B3 variant (A330_20W)/GpL16-k0 (antibody, human IgG1, kappa, Heterodimerized; only the B3 chain altered; also called He Ab A330_20W) heavy 1: not shown heavy 2: not shown light: DIVMTQSPLSLPVTPGEPASISCQASESLVHSNRNTYLHWYLQKPGQSPQLLIYKVSNRFSGVPDRFSGSGSGTDFTLKISRVEAEDVGVYYCSQNTHVPPTFGQGTKVEIERTVAAPSVFIFPPSDEQLKSGTASVVCLLNNFYPREAKVQWKVDNALQSGNSQESVTEQDSKDSTYSLSSTLTLSKADYEKHKVYACEVTHQGLSSPVTKSFNRGEC
6 | 106 % of control | GpH7-A5/GpH7-B3 variant (A330_04F)/GpL16-k0 (antibody, human IgG1, kappa, Heterodimerized; only the B3 chain altered; also called He Ab A330_04F) heavy 1: not shown heavy 2: not shown light: DIVMTQSPLSLPVTPGEPASISCQASESLVHSNRNTYLHWYLQKPGQSPQLLIYKVSNRFSGVPDRFSGSGSGTDFTLKISRVEAEDVGVYYCSQNTHVPPTFGQGTKVEIERTVAAPSVFIFPPSDEQLKSGTASVVCLLNNFYPREAKVQWKVDNALQSGNSQESVTEQDSKDSTYSLSSTLTLSKADYEKHKVYACEVTHQGLSSPVTKSFNRGEC
7 | 101 % of control | GpH7-A5/GpH7-B3 variant (D265_10E)/GpL16-k0 (antibody, human IgG1, kappa, Heterodimerized; only the B3 chain altered; also called He Ab D265_10E) heavy 1: not shown heavy 2: not shown light: DIVMTQSPLSLPVTPGEPASISCQASESLVHSNRNTYLHWYLQKPGQSPQLLIYKVSNRFSGVPDRFSGSGSGTDFTLKISRVEAEDVGVYYCSQNTHVPPTFGQGTKVEIERTVAAPSVFIFPPSDEQLKSGTASVVCLLNNFYPREAKVQWKVDNALQSGNSQESVTEQDSKDSTYSLSSTLTLSKADYEKHKVYACEVTHQGLSSPVTKSFNRGEC
8 | 104 % of control | GpH7-A5/GpH7-B3 variant (I336_14T)/GpL16-k0 (antibody, human IgG1, kappa, Heterodimerized; only the B3 chain altered; also called He Ab I336_14T) heavy 1: not shown heavy 2: not shown light: DIVMTQSPLSLPVTPGEPASISCQASESLVHSNRNTYLHWYLQKPGQSPQLLIYKVSNRFSGVPDRFSGSGSGTDFTLKISRVEAEDVGVYYCSQNTHVPPTFGQGTKVEIERTVAAPSVFIFPPSDEQLKSGTASVVCLLNNFYPREAKVQWKVDNALQSGNSQESVTEQDSKDSTYSLSSTLTLSKADYEKHKVYACEVTHQGLSSPVTKSFNRGEC
9 | 107 % of control | GpH7-A5/GpH7-B3 variant (H268_01G)/GpL16-k0 (antibody, human IgG1, kappa, Heterodimerized; only the B3 chain altered; also called He Ab H268_01G) heavy 1: not shown heavy 2: not shown light: DIVMTQSPLSLPVTPGEPASISCQASESLVHSNRNTYLHWYLQKPGQSPQLLIYKVSNRFSGVPDRFSGSGSGTDFTLKISRVEAEDVGVYYCSQNTHVPPTFGQGTKVEIERTVAAPSVFIFPPSDEQLKSGTASVVCLLNNFYPREAKVQWKVDNALQSGNSQESVTEQDSKDSTYSLSSTLTLSKADYEKHKVYACEVTHQGLSSPVTKSFNRGEC
10 | 108 % of control | GpH7-A5/GpH7-B3 variant (H268_18N)/GpL16-k0 (antibody, human IgG1, kappa, Heterodimerized; only the B3 chain altered; also called He Ab H268_18N) heavy 1: not shown heavy 2: not shown light: DIVMTQSPLSLPVTPGEPASISCQASESLVHSNRNTYLHWYLQKPGQSPQLLIYKVSNRFSGVPDRFSGSGSGTDFTLKISRVEAEDVGVYYCSQNTHVPPTFGQGTKVEIERTVAAPSVFIFPPSDEQLKSGTASVVCLLNNFYPREAKVQWKVDNALQSGNSQESVTEQDSKDSTYSLSSTLTLSKADYEKHKVYACEVTHQGLSSPVTKSFNRGEC
11 | 110 % of control | GpH7-A5/GpH7-B3 variant (H268_09D)/GpL16-k0 (antibody, human IgG1, kappa, Heterodimerized; only the B3 chain altered; also called He Ab H268_09D) heavy 1: not shown heavy 2: not shown light: DIVMTQSPLSLPVTPGEPASISCQASESLVHSNRNTYLHWYLQKPGQSPQLLIYKVSNRFSGVPDRFSGSGSGTDFTLKISRVEAEDVGVYYCSQNTHVPPTFGQGTKVEIERTVAAPSVFIFPPSDEQLKSGTASVVCLLNNFYPREAKVQWKVDNALQSGNSQESVTEQDSKDSTYSLSSTLTLSKADYEKHKVYACEVTHQGLSSPVTKSFNRGEC
